According to the supplement of paper PMC10567573:

B1: MMP1 (parent)
chain: FVRGDHRDNSPFDGPGGNLAHAFQ

Variants of: B1
Assay: protein stability index of a GFP-peptide fusion (GPS, HEK-293T) (PSI 1-6); higher = more stable
Details: c terminus: a fixed tail appended
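Note: lentivirally expressed fusions sorted by FACS into six bins by GFP to DsRed ratio, PSI derived from sequencing read proportions per bin multiplied by bin number.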

Variant | protein stability index
FVRGDHRDNSPFDGWGGNLAHAFQ | 1.87
FVRGDHRDNSPFDGHGGNLAHAFQ | 1.79
FVRGDHRDNSPFDGGGGNLAHAFQ | 1.61
FVRGDHRDNSPFDGRGGNLAHAFQ | 3.76
FVRGDHRDNSPFDGNGGNLAHAFQ | 2.11
FVRGDHRDNSPFDGKGGNLAHAFQ | 1.94
FVRGDHRDNSPFDGFGGNLAHAFQ | 2.1
FVRGDHRDNSPFDGMGGNLAHAFQ | 2.72
FVRGDHRDNSPFDGYGGNLAHAFQ | 2.52
FVRGDHRDNSPFDGSGGNLAHAFQ | 4.22
FVRGDHRDNSPFDGEGGNLAHAFQ | 2.37
FVRGDHRDNSPFDGAGGNLAHAFQ | 1.53
FVRGDHRDNSPFDGTGGNLAHAFQ | 1.38
FVRGDHRDNSPFDGIGGNLAHAFQ | 1.72
FVRGDHRDNSPFDGQGGNLAHAFQ | 1.64
FVRGDHRDNSPFDGDGGNLAHAFQ | 2.97
FVRGDHRDNSPFDGLGGNLAHAFQ | 1.95
FVRGDHRDNSPFDGPGENLAHAFQ | 1.6
FVRGDHRDNSPFDGPGQNLAHAFQ | 1.95
FVRGDHRDNSPFDGPGTNLAHAFQ | 2.05
FVRGDHRDNSPFDGPGSNLAHAFQ | 2.3
FVRGDHRDNSPFDGPGPNLAHAFQ | 1.37
FVRGDHRDNSPFDGPGRNLAHAFQ | 1.79
FVRGDHRDNSPFDGPGWNLAHAFQ | 2.48

Variant | protein stability index
FVRGDHRDNSPFDGPGCNLAHAFQ | 2.62
FVRGDHRDNSPFDGPGNNLAHAFQ | 2.48
FVRGDHRDNSPFDGPGVNLAHAFQ | 2.43
FVRGDHRDNSPFDGPGINLAHAFQ | 2.43
FVRGDHRDNSPFDGPGANLAHAFQ | 1.58
FVRGDHRDNSPFDGPGLNLAHAFQ | 2.29
FVRGDHRDNSPFDGPGYNLAHAFQ | 3.31
FVRGDHRDNSPFDGPGMNLAHAFQ | 3.38
FVRGDHRDNSPFDGPGHNLAHAFQ | 1.9
FVRGDHRDNSPFDGPGDNLAHAFQ | 1.82
FVRGDHRDNSPFDGPGKNLAHAFQ | 1.92
FVRGDHRDNSPFDGPGFNLAHAFQ | 2.18
FVRGDHRDNSPFDGPGGNIAHAFQ | 1.95
FVRGDHRDNSPFDGPGGNGAHAFQ | 2.63
FVRGDHRDNSPFDGPGGNHAHAFQ | 1.39
FVRGDHRDNSPFDGPGGNCAHAFQ | 1.96
FVRGDHRDNSPFDGPGGNKAHAFQ | 2.25
FVRGDHRDNSPFDGPGGNAAHAFQ | 1.38
FVRGDHRDNSPFDGPGGNEAHAFQ | 1.99
FVRGDHRDNSPFDGPGGNFAHAFQ | 2
FVRGDHRDNSPFDGPGGNDAHAFQ | 2.35
FVRGDHRDNSPDDGPGGNLAHAFQ | 2.3
FVRGDHRDNSPKDGPGGNLAHAFQ | 2.27
FVRGDHRDNSPLDGPGGNLAHAFQ | 1.72

Variant | protein stability index
FVRGDHRDNSPRDGPGGNLAHAFQ | 1.84
FVRGDHRDNSPSDGPGGNLAHAFQ | 1.95
FVRGDHRDNSPQDGPGGNLAHAFQ | 1.8
FVRGDHRDNSPIDGPGGNLAHAFQ | 1.72
FVRGDHRDNSPEDGPGGNLAHAFQ | 1.82
FVRGDHRDNSPVDGPGGNLAHAFQ | 1.94
FVRGDHRDNSPHDGPGGNLAHAFQ | 1.99
FVRGDHRDNSPCDGPGGNLAHAFQ | 2
FVRGDHRDNSPPDGPGGNLAHAFQ | 2.31
FVRGDHRDNSPMDGPGGNLAHAFQ | 2.08
FVRGDHRDNSPADGPGGNLAHAFQ | 1.91
FVRGDHRDNSPYDGPGGNLAHAFQ | 2.89
FVRGDHRDNSPNDGPGGNLAHAFQ | 1.83
FVRGDHRDNSPTDGPGGNLAHAFQ | 2.39
FVRGDHRDNSPGDGPGGNLAHAFQ | 2.24
FVRGDHRDNSPWDGPGGNLAHAFQ | 3.55
FVRGDHRDNSPFDFPGGNLAHAFQ | 2.93
FVRGDHRDNSPFDDPGGNLAHAFQ | 2.25
FVRGDHRDNSPFDAPGGNLAHAFQ | 2.12
FVRGDHRDNSPFDWPGGNLAHAFQ | 1.69
FVRGDHRDNSPFDYPGGNLAHAFQ | 2.2
FVRGDHRDNSPFDLPGGNLAHAFQ | 2.44
FVRGDHRDNSPFDHPGGNLAHAFQ | 1.39
FVRGDHRDNSPFDRPGGNLAHAFQ | 1.6

Variant | protein stability index
FVRGDHRDNSPFDTPGGNLAHAFQ | 1.76
FVRGDHRDNSPFDSPGGNLAHAFQ | 1.89
FVRGDHRDNSPFDPPGGNLAHAFQ | 1.91
FVRGDHRDNSPFDKPGGNLAHAFQ | 1.77
FVRGDHRDNSPFDCPGGNLAHAFQ | 2.99
FVRGDHRDNSPFDQPGGNLAHAFQ | 3.14
FVRGDHRDNSPFDVPGGNLAHAFQ | 3.45
FVRGDHRDNSPFDEPGGNLAHAFQ | 2.06
FVRGDHRDNSPFDNPGGNLAHAFQ | 1.7
FVRGDHRDNSPFDIPGGNLAHAFQ | 2.51
FVRGDHRDNSPFDGPGGILAHAFQ | 1.01
FVRGDHRDNSPFDGPGGTLAHAFQ | 1.92
FVRGDHRDNSPFDGPGGCLAHAFQ | 1.5
FVRGDHRDNSPFDGPGGMLAHAFQ | 1.99
FVRGDHRDNSPFDGPGGHLAHAFQ | 1.88
FVRGDHRDNSPFDGPGGSLAHAFQ | 2.18
FVRGDHRDNSPFDGPGGGLAHAFQ | 1.99
FVRGDHRDNSPFDGPGGYLAHAFQ | 1.7
FVRGDHRDNSPFDGPGGRLAHAFQ | 3.01
FVRGDHRDNSPFDGPGGFLAHAFQ | 4.34
FVRGDHRDNSPFDGPGGALAHAFQ | 2.74
FVRGDHRDNSPFDGPGGDLAHAFQ | 1.5
